From publication doi:10.1101/2025.11.08.687396 (bioRxiv, 2025) come the findings set out here.

B1: Otu1-C120S-FLAG (enzyme, S. cerevisiae, UniProt P43558 1-301, looked up)
chain: MKLKVTGAGINQVVTLKQDATLNDLIEHINVDVKTMRFGYPPQRINLQGEDASLGQTQLDELGINSGEKITIESSDSNESFSLPPPQPKPKRVLKSTEMSIGGSGENVLSVHPVLDDNSSLFHAIAYGIFKQDSVRDLREMVSKEVLNNPVKFNDAILDKPNKDYAQWILKMESWGGAIEIGIISDALAVAIYVVDIDAVKIEKFNEDKFDNYILILFNGIHYDSLTMNEFKTVFNKNQPESDDVLTAALQLASNLKQTGYSFNTHKAQIKCNTCQMTFVGEREVARHAESTGHVDFGQNR
notes: deubiquitinating enzyme Otu1 of yeast with C120S; pET28: N-terminal His6-tag, TEV-protease cleavage site, then a FLAG tag; source: E. coli BL21 CodonPlus (DE3) RIPL, purified (Ni-NTA, SEC); not shown: FLAG, N-terminal, kept
B2: UBXN7-SBP (natural protein, human, UniProt O94888 1-489, looked up)
chain: MAAHGGSAASSALKGLIQQFTTITGASESVGKHMLEACNNNLEMAVTMFLDGGGIAEEPSTSSASVSTVRPHTEEEVRAPIPQKQEILVEPEPLFGAPKRRRPARSIFDGFRDFQTETIRQEQELRNGGAIDKKLTTLADLFRPPIDLMHKGSFETAKECGQMQNKWLMINIQNVQDFACQCLNRDVWSNEAVKNIIREHFIFWQVYHDSEEGQRYIQFYKLGDFPYVSILDPRTGQKLVEWHQLDVSSFLDQVTGFLGEHGQLDGLSSSPPKKCARSESLIDASEDSQLEAAIRASLQETHFDSTQTKQDSRSDEESESELFSGSEEFISVCGSDEEEEVENLAKSRKSPHKDLGHRKEENRRPLTEPPVRTDPGTATNHQGLPAVDSEILEMPPEKADGVVEGIDVNGPKAQLMLRYPDGKREQITLPEQAKLLALVKHVQSKGYPNERFELLTNFPRRKLSHLDYDITLQEAGLCPQETVFVQERN
notes: human UBXN7, wild type; also called SBP-tagged version of UBXN7; homolog of Ubx5; source: E. coli BL21 CodonPlus (DE3) RIPL, purified (Ni-NTA, SEC); not shown: SBP, C-terminal, kept
B3: Yod1-C160S (enzyme, human, UniProt Q5VVQ6 1-348, looked up)
chain: MFGPAKGRHFGVHPAPGFPGGVSQQAAGTKAGPAGAWPVGSRTDTMWRLRCKAKDGTHVLQGLSSRTRVRELQGQIAAITGIAPGGQRILVGYPPECLDLSNGDTILEDLPIQSGDMLIIEEDQTRPRSSPAFTKRGASSYVRETLPVLTRTVVPADNSSLFTSVYYVVEGGVLNPACAPEMRRLIAQIVASDPDFYSEAILGKTNQEYCDWIKRDDTWGGAIEISILSKFYQCEICVVDTQTVRIDRFGEDAGYTKRVLLIYDGIHYDPLQRNFPDPDTPPLTIFSSNDDIVLVQALELADEARRRRQFTDVNRFTLRCMVCQKGLTGQAEAREHAKETGHTNFGEV
notes: human deubiquitinating enzyme Yod1 with C160S; also called homolog of Otu1; source: E. coli BL21 CodonPlus (DE3) RIPL, purified (Ni-NTA, SEC)

Common to all, as to conditions: both partners purified
Assay [1] addresses T1, Cdc48 (yeast (S. cerevisiae), UniProt P25694 1-835).
T1 construct: Cdc48 ATPase of yeast, wild type; pET28 with N-terminal His6-tag and a TEV-protease cleavage site; also called Cdc48 ATPase; wild-type (WT) Cdc48; source: E. coli BL21 CodonPlus (DE3) RIPL, purified (Ni-NTA, SEC)
The experiment in a line: pull-down; Otu1-C120S-FLAG on anti-FLAG M2 agarose with Cdc48, UN and Ub(n)-TAIL, with or without Ubx5, 1 μM each, SEC buffer, 5 mM ATPγS, 1 h, 4°C; fluorescence scanning and Coomassie-blue staining.

Assay [2] has as its target T2, Ufd1-Npl4 (UN) complex (yeast (S. cerevisiae), UniProt P53044 1-361; P33755 1-580).
T2 construct: Ufd1 of yeast; Npl4 of yeast; The methods call the complex untagged; the plasmids are described as Ufd1 with an N-terminal His14-SUMO tag and Npl4 with a C-terminal His6 or FLAG-His6 tag; also called untagged Ufd1/Npl4 (UN) complex; source: bacterial expression
T2 sequence 1: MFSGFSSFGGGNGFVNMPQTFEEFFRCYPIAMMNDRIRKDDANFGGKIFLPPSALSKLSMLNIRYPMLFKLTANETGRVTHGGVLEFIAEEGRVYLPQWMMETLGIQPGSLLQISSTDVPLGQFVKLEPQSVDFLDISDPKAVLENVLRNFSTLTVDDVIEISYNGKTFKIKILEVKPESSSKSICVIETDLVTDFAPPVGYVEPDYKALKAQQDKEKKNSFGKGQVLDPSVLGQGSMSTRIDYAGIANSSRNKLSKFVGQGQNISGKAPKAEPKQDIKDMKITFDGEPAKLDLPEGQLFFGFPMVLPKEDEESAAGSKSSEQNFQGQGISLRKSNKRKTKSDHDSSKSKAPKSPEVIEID
T2 sequence 2: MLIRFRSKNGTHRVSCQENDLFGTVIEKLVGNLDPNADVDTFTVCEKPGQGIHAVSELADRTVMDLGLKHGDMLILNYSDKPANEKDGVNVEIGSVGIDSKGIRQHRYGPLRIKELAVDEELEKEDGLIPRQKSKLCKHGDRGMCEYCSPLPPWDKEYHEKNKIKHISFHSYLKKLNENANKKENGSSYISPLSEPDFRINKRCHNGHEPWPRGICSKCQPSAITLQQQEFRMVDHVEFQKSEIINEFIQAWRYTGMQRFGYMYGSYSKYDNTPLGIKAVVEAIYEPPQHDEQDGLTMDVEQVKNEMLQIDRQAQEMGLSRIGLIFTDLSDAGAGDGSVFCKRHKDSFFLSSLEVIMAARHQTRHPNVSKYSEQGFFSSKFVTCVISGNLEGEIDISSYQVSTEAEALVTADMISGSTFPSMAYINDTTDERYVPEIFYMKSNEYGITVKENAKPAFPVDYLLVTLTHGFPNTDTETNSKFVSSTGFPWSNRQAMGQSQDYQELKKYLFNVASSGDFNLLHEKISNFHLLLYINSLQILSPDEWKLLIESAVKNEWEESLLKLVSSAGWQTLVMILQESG
The description is as above.

Assay [3] concerns the target T3, human Npl4 (human, UniProt Q8TAT6 1-608).
T3 construct: human Npl4; Used as the human UN complex with hUfd1; also called hNpl4; Npl4 of the human UN complex; source: purified
In words: pull-down; UBXN7-SBP on streptavidin agarose with p97, human UN, Yod1-C160S and Ub(n)-TAIL, 1 μM each, SEC buffer, 5 mM ATPγS, 1 h, 4°C, eluted with 2 mM biotin; Coomassie-blue staining.

The target in assay [4] is T4, human p97 ATPase (human, UniProt P55072 1-806).
T4 construct: human p97 (VCP), wild type; pET28 with N-terminal His6-tag and a TEV-protease cleavage site; also called VCP; homolog of Cdc48; source: E. coli BL21 CodonPlus (DE3) RIPL, purified (Ni-NTA, SEC)
The assay is described as above.

Assay [5] addresses B2. The description is as above.

T3 sequence (Q8TAT6 whole entry): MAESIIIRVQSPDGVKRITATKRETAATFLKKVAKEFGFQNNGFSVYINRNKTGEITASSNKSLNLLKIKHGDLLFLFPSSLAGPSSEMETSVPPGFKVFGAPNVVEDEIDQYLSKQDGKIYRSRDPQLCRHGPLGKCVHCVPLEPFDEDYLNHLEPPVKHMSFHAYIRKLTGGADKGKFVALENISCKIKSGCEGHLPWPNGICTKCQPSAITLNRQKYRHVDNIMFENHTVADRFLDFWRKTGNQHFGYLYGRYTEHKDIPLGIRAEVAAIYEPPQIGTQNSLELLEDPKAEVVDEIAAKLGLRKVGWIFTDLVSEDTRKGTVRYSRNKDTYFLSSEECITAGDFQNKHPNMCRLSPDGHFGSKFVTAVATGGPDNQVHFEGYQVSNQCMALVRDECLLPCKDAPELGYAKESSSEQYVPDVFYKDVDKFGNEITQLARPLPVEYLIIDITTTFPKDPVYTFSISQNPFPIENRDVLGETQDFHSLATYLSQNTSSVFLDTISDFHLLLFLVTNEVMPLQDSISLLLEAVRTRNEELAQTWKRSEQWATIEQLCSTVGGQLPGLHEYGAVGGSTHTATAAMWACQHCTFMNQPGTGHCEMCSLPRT
T4 sequence (P55072 whole entry): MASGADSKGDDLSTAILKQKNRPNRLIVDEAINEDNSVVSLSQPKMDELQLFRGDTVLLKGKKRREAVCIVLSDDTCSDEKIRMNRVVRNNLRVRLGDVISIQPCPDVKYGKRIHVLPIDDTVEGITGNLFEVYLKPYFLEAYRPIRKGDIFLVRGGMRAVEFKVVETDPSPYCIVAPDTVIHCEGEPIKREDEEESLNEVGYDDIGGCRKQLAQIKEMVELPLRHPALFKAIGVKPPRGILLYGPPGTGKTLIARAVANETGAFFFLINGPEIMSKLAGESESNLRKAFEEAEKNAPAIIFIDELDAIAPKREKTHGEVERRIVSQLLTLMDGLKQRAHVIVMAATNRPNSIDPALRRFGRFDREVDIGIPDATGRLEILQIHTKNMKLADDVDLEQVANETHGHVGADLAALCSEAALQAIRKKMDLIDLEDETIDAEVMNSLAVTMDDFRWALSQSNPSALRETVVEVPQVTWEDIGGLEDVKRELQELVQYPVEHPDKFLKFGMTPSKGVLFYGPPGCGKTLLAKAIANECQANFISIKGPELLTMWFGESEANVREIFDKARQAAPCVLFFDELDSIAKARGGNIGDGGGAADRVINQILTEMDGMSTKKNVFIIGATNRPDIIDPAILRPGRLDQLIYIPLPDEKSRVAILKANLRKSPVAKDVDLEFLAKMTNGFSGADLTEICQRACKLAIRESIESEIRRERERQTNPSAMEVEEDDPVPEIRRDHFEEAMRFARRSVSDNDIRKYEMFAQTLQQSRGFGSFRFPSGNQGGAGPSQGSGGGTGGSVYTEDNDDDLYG
T1 sequence (P25694 whole entry): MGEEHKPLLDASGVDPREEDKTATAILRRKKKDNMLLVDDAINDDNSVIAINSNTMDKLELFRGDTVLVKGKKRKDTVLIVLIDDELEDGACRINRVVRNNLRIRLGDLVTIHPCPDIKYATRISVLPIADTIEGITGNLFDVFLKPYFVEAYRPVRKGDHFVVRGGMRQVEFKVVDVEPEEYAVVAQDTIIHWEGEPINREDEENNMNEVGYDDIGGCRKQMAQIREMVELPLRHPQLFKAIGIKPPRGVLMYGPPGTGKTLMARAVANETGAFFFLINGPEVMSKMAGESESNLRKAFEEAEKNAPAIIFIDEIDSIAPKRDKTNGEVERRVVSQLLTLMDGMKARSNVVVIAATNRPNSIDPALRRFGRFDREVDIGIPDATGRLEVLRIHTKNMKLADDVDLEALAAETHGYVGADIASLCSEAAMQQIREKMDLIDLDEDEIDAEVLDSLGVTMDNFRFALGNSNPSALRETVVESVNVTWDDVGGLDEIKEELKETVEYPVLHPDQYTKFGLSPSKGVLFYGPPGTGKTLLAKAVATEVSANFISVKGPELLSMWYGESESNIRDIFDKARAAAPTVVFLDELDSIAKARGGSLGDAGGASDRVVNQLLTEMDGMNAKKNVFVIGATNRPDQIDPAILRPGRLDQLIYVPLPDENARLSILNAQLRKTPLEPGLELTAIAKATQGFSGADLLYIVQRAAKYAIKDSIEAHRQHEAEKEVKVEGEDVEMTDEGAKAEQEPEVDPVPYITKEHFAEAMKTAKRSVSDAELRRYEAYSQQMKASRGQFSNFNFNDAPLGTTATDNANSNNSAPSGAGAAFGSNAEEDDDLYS

With B1, the binding result in assay [1] and in assay [2] was “binds” throughout.

As to B2, the binding result in assay [3] and in assay [4] was “binds” in each case.

In the case of B3, the binding result in assay [5] is listed as “binds”.
